Patent publication US10568949B2, “Method of eliciting an anti-tumor immune response with controlled delivery of TLR agonists in porous polymerlc devices” (President and Fellows of Harvard College, priority 2008, dated 2020)

What was measured:
[1] = system: B16-F10 cells; assay: Example 7: vaccination of mice lacking CD8(+) DCs; assay type: in vivo; details: vaccinated Batf3−/− mice
Experimental: C57BL/6 mice and Batf3−/− knockout mice (6-8-week-old female; Jackson Laboratories) were used in the studies described in Example 7.
Since PLG vaccines incorporating TLR agonists were capable of generating CD8(+) DC populations in situ, which correlated to potent anti-tumor CTL responses and survival (FIGS. 17A-D and 19A-F), studies were carried out to examine whether these cells were required to confer anti-tumor immunity in vivo. […] Wild-type and Batf3−/− mice were vaccinated with CpG-ODN loaded PLG vaccines and challenged with B16-F10 cells 14 days later. Vaccination of wildtype mice promoted complete protection against tumor growth and long-term survival (100% survival), as expected, but vaccinated Batf3−/− were not protected and tumor growth rates were similar to untreated, wild-type animals (FIG. 20A).

[2] = system: host DCs; assay: In vivo DC emigration from FITC painted scaffolds to inguinal lymph nodes; design: species or system C57BL/6J mice; details: mouse
Experimental: Blank scaffolds and scaffolds containing GM-CSF with or without 10 μg PEI-ODN control (5′-tcc atg agc ttc ctg agc tt-3′) (SEQ ID NO: 6) or 10 μg PEI-CpG-ODN condensate loaded scaffolds were implanted into subcutaneous pockets on the back of 7-9 week old male C57BL/6J mice. For histological examination scaffolds were excised and fixed in Z-fix solution, embedded in paraffin, and stained with hematoxylin and eosin. To analyze DC recruitment, scaffolds were excised and the ingrown tissue was digested into single cell suspensions using a collagenase solution (Worthingtion, 250 U/ml) that was agitated at 37° C. for 45 minutes. The cell suspensions were then poured through a 40 μm cell strainer to isolate cells from scaffold particles and the cells were pelleted and washed with cold PBS and counted using a Z2 coulter counter (Beckman Coulter). The resultant cell populations were then stained with primary antibodies (BD Pharmingen, San Diego, Calif.) conjugated to fluorescent markers to allow for analysis by flow cytometry. […] Cells were gated according to positive FITC, APC and PE using isotype controls, and the percentage of cells staining positive for each surface antigen was recorded. […]

[3] = system: JAWSII DCs; assay: In vitro DC migration toward CCL19 (transwell); assay type: cell-based
Experimental: Migration assays were performed with 6.5 mm transwell dishes (Costar, Cambridge, Mass.) with a pore size of 5 μm. To test whether CpG-ODN stimulation may affect DC chemotaxis towards CCL19 (Peprotech, Rocky Hill, N.J.) in the presence of GM-CSF, 5×10^5 DCs stimulated with either 5 μg/ml of CpG-ODN or PEI-CPG-ODN (Charge Ratio of 7), and 0, 50 and 500 ng/ml GM-CSF were placed in the top wells and 300 ng/ml of CCL19 was placed in the bottom well. After 12 hours the cells that migrated into the bottom wells of the chamber were harvested and counted using a coulter counter. Dispersement of DCs from PEI-CpG-ODN loaded PLG matrices toward CCL19 was assessed by incorporating 5, 50 and 500 μg of condensates into PLG scaffolds (13 mm diameter, 2 mm thick that were quartered) seeded with 1×10^6 DCs and fixed onto transwells using bovine collagen (BD Biosciences, San Jose, Calif.). To test the effects of CpG stimulation in the presence of GM-CSF, 500 ng/ml of GM-CSF was supplemented into the media of the top wells with scaffolds containing 25 μg of PEI-CpG-ODN. At various timepoints, the cells that migrated into the bottom wells of the chamber were harvested and counted using a coulter counter.

[4] = system: IL-12p70 and IFN-γ; details: tumor lysate and CpG-ODN
Experimental: To determine the in vivo IL-12p70 and IFN-γ concentration at the matrix implant site, adjacent tissue was excised and digested with tissue protein extraction reagent at Day 10 after implantation (Pierce). After centrifugation, the concentrations of IL-12 and IFN-γ, in the supernatant were then analyzed with ELISA (R&D systems), according to the manufacturer's instructions. To determine the generation of TRP-2-specific cytotoxic T lymphocytes, single cell suspensions were prepared at Day 10 from the spleens of mice immunized with PLG vaccines. These cells were initially stained with PE-H-2Kb/TRP2 pentamers (Sigma Aldrich), and subsequently stained with FITC-anti-CD8 and PE-CY7 CD3 mAb (mAb (BD Pharmingen, San Diego) before being analyzed using flow cytometry.

[5] = In vivo GM-CSF concentration in tissue around PLG implant; design: species or system C57BL/6J mice; details: for GM-CSF concentration in surrounding tissue: peak

For CpG-ODN 1826, the “decrease in TRP2 specific cytotoxic T cells at vaccine site vs wild-type” value [1] was 3 fold, the “protection against tumor growth” value [1] was “not protected” and the “increase in number of DCs recruited to matrices and subsequently dispersed to the lymph nodes” value [2] was 6 fold.

B1: granulocyte macrophage colony stimulating factor (protein, UniProt P01587 18-141, looked up)
Granulocyte-macrophage …: APTRSPITVTRPWKHVEAIKEALNLLDDMPVTLNEEVEVVSNEFSFKKLTCVQTRLKIFEQGLRGNFTKLKGALNMTASYYQTYCPPTPETDCETQVTTYADFIDSLKTFLTDIPFECKKPGQK
notes: cytokine encapsulated in and released from PLG matrices to recruit DCs
In the case of B1, the “concentration that inhibited DC migration toward CCL19” value [3] is reported as greater than 100 ng/mL, the “increase in local concentration of IFN-γ over control scaffolds” value [4] is reported as roughly 6 fold and the “increase in local concentration of IL-12 over control scaffolds” value [4] is reported as “approximately 3 fold”. The “day of secondary peak for GM-CSF in vivo” value ([5]; 3000 ng dose) was 5 days, the “day of secondary peak for GM-CSF in vivo” value ([5]; 7000 ng dose) was 7 days and the “GM-CSF concentration difference over no incorporated GM-CSF” value ([5]; 12 hours post-implantation) was greater than 30 fold. The “period elevated GM-CSF levels were maintained” value ([5]; mouse, in vivo) was “approximately 10 days”, the “GM-CSF concentration in surrounding tissue” value ([5]; 12 hours post-implantation, 1-3 mm from implant site) was 100 µg/mL and the “GM-CSF concentration in surrounding tissue” value ([5]; 12 hours post-implantation, 3-5 mm from implant site) was 30 µg/mL.
